± gives the uncertainty stated by the source.
Assay: self-splicing fitness, log relative to wild type (ln ratio); higher = more splicing; Tetrahymena group I intron in knt gene, E. coli kanamycin selection, DiMSum; sequences stand for … in CUCUCU…GGAGGGAAAAGUUAUCAGGCAUGCACCUGGUAGCUAGUCUUUAAACCAAUAGAUUGCAUCGGUUUAAAAGGCAAGACCGUCAAAUUGCGGGAAAGGGGUCAACAGCCGUUCAGUACCAAGUCUCAGGGGAAACUUUGAGAUGGCCUUGCAAAGGGUAUGGUAAUAAGCUGACGGACAUGGUCCUAACCACGCAGCCAAGUCCUAAGUCAACAGAUCUUCUGUUGAUAUGGAUGCAGUUCACAGACUAAAUGUCGGUCGGGGAAGAUGUAUUCUUCUCAUAAGAUAUAGUCGGACCUCUCCUUAAUGGGAGCUAGCGGAUGAAGUGAUGCAACACUGGAGCCGCUGGGAACUAAUUUGUAUGCGAAAGUAUAUUGAUUAGUUUUGGAGUACUCGUGGUCG
Outline: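 Pooled colonies went to amplicon sequencing on an Illumina HiSeq 2500 after six replicate transformations. The plates were LB agar with 100 μg/mL carbenicillin, 50 μM IPTG and 0.2% rhamnose, with or without 25 μg/mL kanamycin, incubated overnight at 37°C or 30°C. The E. coli BL21(DE3) library had all eight P1ex-region intron nucleotides randomised, the intron placed in the knt kanamycin-resistance gene on pET-22b(+). DiMSum fitness is the error-weighted combination of replicate fold changes, kanamycin against none, normalised to wild type.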

| Sequence | self-splicing fitness (ln) (30 °C) | self-splicing fitness (ln) (37 °C) |
| --- | --- | --- |
| ACGGAGCAAUAUUACGGAUU | -3.94 ± 0.31 | -0.896 ± 0.16 |
| ACGGAGCAAUAUUACGGGCG | -2.12 ± 0.19 | -0.224 ± 0.19 |
| ACGGAGCAAUAUUACGGUAC | -4.95 ± 0.36 | -2.3 ± 0.22 |
| ACGGAGCAAUAUUACGGUCG | -2.48 ± 0.11 | -0.856 ± 0.11 |
| ACGGAGCAAUAUUACGGUGG | -3.07 ± 0.18 | -2.22 ± 0.26 |
| ACGGAGCAAUAUUACGGUUC | -4.29 ± 0.37 | -1.32 ± 0.22 |
| ACGGAGCAAUAUUACGUAAU | -3.61 ± 0.41 | -2.39 ± 0.48 |
| ACGGAGCAAUAUUACGUGAA | -2.95 ± 0.15 | -2.35 ± 0.19 |
| ACGGAGCAAUAUUACGUGGG | -3.99 ± 0.18 | -2.29 ± 0.15 |
| ACGGAGCAAUAUUACGUGUC | -4.54 ± 0.46 | -1.8 ± 0.18 |
| ACGUAGCAAUAUUACGAAGC | – | -1.96 ± 0.41 |
| ACGUAGCAAUAUUACGAAUA | -2.32 ± 0.17 | -1.46 ± 0.12 |
| ACGUAGCAAUAUUACGAGAA | -2.37 ± 0.26 | -3.02 ± 0.33 |
| ACGUAGCAAUAUUACGAGCU | -1.36 ± 0.12 | -1.06 ± 0.14 |
| ACGUAGCAAUAUUACGAUAC | -2.62 ± 0.12 | -2.26 ± 0.19 |
| ACGUAGCAAUAUUACGAUUG | -2.78 ± 0.11 | -1.99 ± 0.12 |
| ACGUAGCAAUAUUACGCAAA | -1.78 ± 0.21 | -2.42 ± 0.3 |
| ACGUAGCAAUAUUACGCAAU | -2.95 ± 0.17 | -1.53 ± 0.22 |
| ACGUAGCAAUAUUACGCAUG | -2.97 ± 0.15 | -0.981 ± 0.11 |
| ACGUAGCAAUAUUACGCAUU | -2.8 ± 0.17 | -0.657 ± 0.11 |
| ACGUAGCAAUAUUACGCCGC | -3.7 ± 0.46 | – |
| ACGUAGCAAUAUUACGCGAU | -3.01 ± 0.14 | -1.5 ± 0.11 |

| Sequence | self-splicing fitness (ln) (30 °C) | self-splicing fitness (ln) (37 °C) |
| --- | --- | --- |
| ACGUAGCAAUAUUACGCGGA | -2.05 ± 0.18 | -0.895 ± 0.11 |
| ACGUAGCAAUAUUACGCGUA | -2.22 ± 0.17 | -1.74 ± 0.16 |
| ACGUAGCAAUAUUACGCUUU | -1.92 ± 0.058 | -1.11 ± 0.075 |
| ACGUAGCAAUAUUACGGAAC | -2.09 ± 0.24 | -2.14 ± 0.26 |
| ACGUAGCAAUAUUACGGAUU | -2.5 ± 0.14 | -1.8 ± 0.2 |
| ACGUAGCAAUAUUACGGCCG | -0.0843 ± 0.13 | -0.11 ± 0.19 |
| ACGUAGCAAUAUUACGGGAC | -4.43 ± 0.3 | -1.45 ± 0.16 |
| ACGUAGCAAUAUUACGGUAU | -2.02 ± 0.11 | -1.56 ± 0.12 |
| ACGUAGCAAUAUUACGGUGA | -2.3 ± 0.2 | -0.727 ± 0.15 |
| ACGUAGCAAUAUUACGUAUG | -2.75 ± 0.18 | -3.33 ± 0.42 |
| ACGUAGCAAUAUUACGUCGA | -3.67 ± 0.3 | -2.72 ± 0.24 |
| ACGUAGCAAUAUUACGUCUC | -2.84 ± 0.19 | -3.13 ± 0.32 |
| ACGUAGCAAUAUUACGUGCU | -1.94 ± 0.11 | -0.828 ± 0.12 |
| ACUAAGCAAUAUUACGAAAC | -3.55 ± 0.12 | -2.3 ± 0.16 |
| ACUAAGCAAUAUUACGACUG | -0.95 ± 0.065 | -0.652 ± 0.089 |
| ACUAAGCAAUAUUACGAGCC | -3.72 ± 0.4 | -1.62 ± 0.33 |
| ACUAAGCAAUAUUACGAUCA | -1.15 ± 0.072 | -0.58 ± 0.073 |
| ACUAAGCAAUAUUACGAUUU | -0.208 ± 0.062 | -0.0751 ± 0.09 |
| ACUAAGCAAUAUUACGCACC | -0.776 ± 0.12 | -0.198 ± 0.13 |
| ACUAAGCAAUAUUACGCAUU | -1.82 ± 0.11 | -0.321 ± 0.12 |
| ACUAAGCAAUAUUACGCCAU | – | -2.01 ± 0.29 |

From the supplement of paper PMC7877785
